Laboratory results as given in paper PMC5816610.

How the values were obtained:
[1] = molecular target: sigma70-RNA polymerase holoenzyme (UniProt P0A7Z4+P0A8V2+P0A8T7+P0A800+P00579); assay: EMSA; settings: 1x Transcription buffer (composition in cited ref 50), 37 C, 1 pmol DNA, 10 min then 30 min with protein; 5% PAGE in 1xTBE; purified CRP +/-200 uM cAMP …
[2] = system: CRP (purified); assay: EMSA; settings: 1x Transcription buffer (composition in cited ref 50), 37 C, 1 pmol DNA, 10 min then 30 min with protein; 5% PAGE in 1xTBE; purified CRP +/-200 uM cAMP …

Substance	binding [1]	binding signal (fold vs no cAMP) [2]
ATTTAACGGCAGCAAGGCTATTCAGCAGTTCGTTCGGGTCAATACCGTCAGCGATCAGCATTTCGCGATATTGCTGCAGTTTACGAGTGCGCTCTTCAACTTC (double strand) [hns internal region without promoters]	no binding	
yihU/V intergenic region		1.3
yihV/W intergenic region		1.3
